Experimental findings from patent EP1801220A2 (Monsanto Technology, LLC, dated 2007) are described below.

Data set [1] has as its target Cry3Bb.11032 (D165G) (Bacillus thuringiensis) (UniProt Q06117). Put plainly: cell-based or functional assay.
Data set [2] concerns the molecule itself. Put plainly: SDS-PAGE of unheated samples, Coomassie stain, self-association.

“Cry3Bb.11032 (D165G) (from UniProt Q06117 1-652)” yielded an initial channel conductances when the protein is artificially incorporated into the membrane in data set [1] of 16 fold.

B1: Cry3Bb.60 (60 kDa trypsin-truncated Cry3Bb, first 159 residues removed) (other)
chain: SKRSQDRIRELFSQAESHFRNSMPSFAVSKFEVLFLPTYAQAANTHLLLLKDAQVFGEEWGYSSEDVAEFYHRQLKLTQQYTDHCVNWYNVGLNGLRGSTYDAWVKFNRFRREMTLTVLDLIVLFPFYDIRLYSKGVKTELTRDIFTDPIFSLNTLQEYGPTFLSIENSIRKPHLFDYLQGIEFHTRLQPGYFGKDSFNYWSGNYVETRPSIGSSKTITSPFYGDKSTEPVQKLSFDGQKVYRTIANTDVAAWPNGKVYLGVTKVDFSQYDDQKNETSTQTYDSKRNNGHVSAQDSIDQLPPETTDEPLEKAYSHQLNYAECFLMQDRRGTIPFFTWTHRSVDFFNTIDAEKITQLPVVKAYALSSGASIIEGPGFTGGNLLFLKESSNSIAKFKVTLNSAALLQRYRVRIRYASTTNLRLFVQNSNNDFLVIYINKTMNKDDDLTYQTFDLATTNSNMGFSGDKNELIIGAESFVSNEKIYIDKIEFIPVQL
notes: Made by trypsin digestion of solubilized Cry3Bb, which cleaves after R159; The range counts on wild-type Cry3Bb; also called CryB2.60; Δ1-159
B1: the binding result in data set [2] is listed as “binds”.
